Assay results from patent publication US20250163167A1 (SYNTHEKINE, published 2025).

B1: IL10R binding molecule of SEQ ID NO: 263 (bispecific antibody)
chain: QVQLQESGGGSVQAGGSLRLSCAASRFTYSSYCMGWFRQAPGKEREGVASIDSDGSTSYTDSVKGRFTISKDNAKNTLYLQMNSLKPEDTAMYYCALDLMSTVVPGFCGFLLSAGMDYWGKGTQVTVSSGGGSQVQLQESGGGSVQAGGSLRLSCAASGYTYSSGCMGWFRQAPGKEREAVAAINSDGSTSYADSVKGRFTISKDNAKNTLYLQMNSLKPEDTAMYYCAAEPYCSGGYPRWSVAEFGYWGQGTQVTVSSASHHHHHH
B2: IL10R binding molecule of SEQ ID NO: 339 (bispecific antibody)
chain: QVQLQESGGGSVEAGGSLRLSCAASGYTHSSYCMGWFRQAPGKEREGVAAIDVDGSTTYADSVKGRFTISKDNAKNTLYLQMNSLKPEDTGMYYCAAEFADCSSNYFLPPGAVRYWGQGTQVTVSSGGGSQVQLQESGGGSVQAGGSLRLSCAASGYSNCSYDMTWYRQAPGKEREFVSAIHSDGSTRYADSVKGRFFISQDNAKNTVYLQMNSLKPEDTAMYYCKTDPLHCRAHGGSWYSVRANYWGQGTQVTVSSASHHHHHH
B3: IL10R binding molecule of SEQ ID NO: 348 (bispecific antibody)
chain: QVQLQESGGGSVQTGGSLRLSCAASGYTYLRGCMGWFRQAPGKEREGVAVMDVVGDRRSYIDSVKGRFTISRDNAANSVYLQMDNLKPEDTAMYYCTAGPNCVGWRSGLDYWGQGTQVTVSSGGGSQVQLQESGGGSVQAGGSLRLSCAASRFTYSSYCMGWFRQAPGKEREGVASIDSDGSTSYTDSVKGRFTISKDNAKNTLYLQMNSLKPEDTAMYYCALDLMSTVVPGFCGFLLSAGMDYWGKGTQVTVSSASHHHHHH
B4: IL10R binding molecule of SEQ ID NO: 342 (bispecific antibody)
chain: QVQLQESGGGSVQAGGSLRLSCAASGYSYSSYCMGWFRQAPGKEREGVATIDSDGMTRYADSVKGRFTISKDNAKNTLYLQMNSLKPEDTAMYYCAAPLYDCDSGAVGRNPPYWGQGTQVTVSSGGGSQVQLQESGGGSVQAGGSLRLSCAASGYTYSMYCMGWFRQAPGKEREGVAQINSDGSTSYADSVKGRFTISKDNAKNTLYLQMNSLKPEDTAMYYCAADSRVYGGSWYERLCGPYTYEYNYWGQGTQVTVSSASHHHHHH
B5: IL10R binding molecule of SEQ ID NO: 349 (bispecific antibody)
chain: QVQLQESGGGSVQTGGSLRLSCAASGYTYLRGCMGWFRQAPGKEREGVAVMDVVGDRRSYIDSVKGRFTISRDNAANSVYLQMDNLKPEDTAMYYCTAGPNCVGWRSGLDYWGQGTQVTVSSGGGSQVQLQESGGGSVQAGGSLRLSCAASGYTYSMYCMGWFRQAPGKEREGVAQINSDGSTSYADSVKGRFTISKDNAKNTLYLQMNSLKPEDTAMYYCAADSRVYGGSWYERLCGPYTYEYNYWGQGTQVTVSSASHHHHHH
B6: IL10R binding molecule of SEQ ID NO: 340 (bispecific antibody)
chain: QVQLQESGGGSVQAGGSLRLSCAASGYSYSSYCMGWFRQAPGKEREGVATIDSDGMTRYADSVKGRFTISKDNAKNTLYLQMNSLKPEDTAMYYCAAPLYDCDSGAVGRNPPYWGQGTQVTVSSGGGSQVQLQESGGGSVQAGGSLRLSCAASRYLYSIDYMAWFRQSPGKEREPVAVIYTASGATFYPDSVKGRFTISQDNAKMTVYLQMNSLKSEDTAMYYCAAVRKTDSYLFDAQSFTYWGQGTQVTVSSASHHHHHH
B7: IL10R binding molecule of SEQ ID NO: 336 (bispecific antibody)
chain: QVQLQESGGGSVEAGGSLRLSCAASGYTHSSYCMGWFRQAPGKEREGVAAIDVDGSTTYADSVKGRFTISKDNAKNTLYLQMNSLKPEDTGMYYCAAEFADCSSNYFLPPGAVRYWGQGTQVTVSSGGGSQVQLQESGGGSVQAGGSLRLSCAVSGYAYSTYCMGWFRQAPGKEREGVAAIDSGGSTSYADSVKGRFTISKDNAKNTLYLRMNSLKPEDTAMYYCAAVPPPPDGGSCLFLGPEIKVSKADFRYWGQGTQVTVSSASHHHHHH
B8: IL10R binding molecule of SEQ ID NO: 346 (bispecific antibody)
chain: QVQLQESGGGSVQAGGSLRLSCAASGYSYSSYCMGWFRQAPGKEREGVATIDSDGMTRYADSVKGRFTISKDNAKNTLYLQMNSLKPEDTAMYYCAAPLYDCDSGAVGRNPPYWGQGTQVTVSSGGGSQVQLQESGGGSVQAGGSLRLSCAASGYSNCSYDMTWYRQAPGKEREFVSAIHSDGSTRYADSVKGRFFISQDNAKNTVYLQMNSLKPEDTAMYYCKTDPLHCRAHGGSWYSVRANYWGQGTQVTVSSASHHHHHH
B9: IL10R binding molecule of SEQ ID NO: 347 (bispecific antibody)
chain: QVQLQESGGGSVQTGGSLRLSCAASGYTYLRGCMGWFRQAPGKEREGVAVMDVVGDRRSYIDSVKGRFTISRDNAANSVYLQMDNLKPEDTAMYYCTAGPNCVGWRSGLDYWGQGTQVTVSSGGGSQVQLQESGGGSVQAGGSLRLSCAASRYLYSIDYMAWFRQSPGKEREPVAVIYTASGATFYPDSVKGRFTISQDNAKMTVYLQMNSLKSEDTAMYYCAAVRKTDSYLFDAQSFTYWGQGTQVTVSSASHHHHHH
B10: IL10R binding molecule of SEQ ID NO: 337 (bispecific antibody)
chain: QVQLQESGGGSVEAGGSLRLSCAASGYTHSSYCMGWFRQAPGKEREGVAAIDVDGSTTYADSVKGRFTISKDNAKNTLYLQMNSLKPEDTGMYYCAAEFADCSSNYFLPPGAVRYWGQGTQVTVSSGGGSQVQLQESGGGSVQAGGSLRLSCTVSGYTYSSNCMGWFRQAPGKEREGVATIYTGGGNTYYADSVKGRFTISQDNAKNTVYLQMNNLKPEDTAMYYCAAEPLSRVYGGSCPTPTFDYWGQGTQVTVSSASHHHHHH
B11: IL10R binding molecule of SEQ ID NO: 341 (bispecific antibody)
chain: QVQLQESGGGSVQAGGSLRLSCAASGYSYSSYCMGWFRQAPGKEREGVATIDSDGMTRYADSVKGRFTISKDNAKNTLYLQMNSLKPEDTAMYYCAAPLYDCDSGAVGRNPPYWGQGTQVTVSSGGGSQVQLQESGGGSVQAGGSLRLSCAASRFTYSSYCMGWFRQAPGKEREGVASIDSDGSTSYTDSVKGRFTISKDNAKNTLYLQMNSLKPEDTAMYYCALDLMSTVVPGFCGFLLSAGMDYWGKGTQVTVSSASHHHHHH
B12: IL10R binding molecule of SEQ ID NO: 335 (bispecific antibody)
chain: QVQLQESGGGSVEAGGSLRLSCAASGYTHSSYCMGWFRQAPGKEREGVAAIDVDGSTTYADSVKGRFTISKDNAKNTLYLQMNSLKPEDTGMYYCAAEFADCSSNYFLPPGAVRYWGQGTQVTVSSGGGSQVQLQESGGGSVQAGGSLRLSCAASGYTYSMYCMGWFRQAPGKEREGVAQINSDGSTSYADSVKGRFTISKDNAKNTLYLQMNSLKPEDTAMYYCAADSRVYGGSWYERLCGPYTYEYNYWGQGTQVTVSSASHHHHHH
B13: IL10R binding molecule of SEQ ID NO: 343 (bispecific antibody)
chain: QVQLQESGGGSVQAGGSLRLSCAASGYSYSSYCMGWFRQAPGKEREGVATIDSDGMTRYADSVKGRFTISKDNAKNTLYLQMNSLKPEDTAMYYCAAPLYDCDSGAVGRNPPYWGQGTQVTVSSGGGSQVQLQESGGGSVQAGGSLRLSCAVSGYAYSTYCMGWFRQAPGKEREGVAAIDSGGSTSYADSVKGRFTISKDNAKNTLYLRMNSLKPEDTAMYYCAAVPPPPDGGSCLFLGPEIKVSKADFRYWGQGTQVTVSSASHHHHHH
B14: IL10R binding molecule of SEQ ID NO: 345 (bispecific antibody)
chain: QVQLQESGGGSVQAGGSLRLSCAASGYSYSSYCMGWFRQAPGKEREGVATIDSDGMTRYADSVKGRFTISKDNAKNTLYLQMNSLKPEDTAMYYCAAPLYDCDSGAVGRNPPYWGQGTQVTVSSGGGSQVQLQESGGGSVQAGGSLRLSCGASGYTYSSYCMGWFRQVPGKEREGVAVIDSDGSTSYADSVKGRFTISKDNGKNTLYLQMNSLKPEDTAMYYCAADLGHYRPPCGVLYLGMDYWGKGTQVTVSSASHHHHHH
B15: IL10R binding molecule of SEQ ID NO: 338 (bispecific antibody)
chain: QVQLQESGGGSVEAGGSLRLSCAASGYTHSSYCMGWFRQAPGKEREGVAAIDVDGSTTYADSVKGRFTISKDNAKNTLYLQMNSLKPEDTGMYYCAAEFADCSSNYFLPPGAVRYWGQGTQVTVSSGGGSQVQLQESGGGSVQAGGSLRLSCGASGYTYSSYCMGWFRQVPGKEREGVAVIDSDGSTSYADSVKGRFTISKDNGKNTLYLQMNSLKPEDTAMYYCAADLGHYRPPCGVLYLGMDYWGKGTQVTVSSASHHHHHH
B16: IL10R binding molecule of SEQ ID NO: 344 (bispecific antibody)
chain: QVQLQESGGGSVQAGGSLRLSCAASGYSYSSYCMGWFRQAPGKEREGVATIDSDGMTRYADSVKGRFTISKDNAKNTLYLQMNSLKPEDTAMYYCAAPLYDCDSGAVGRNPPYWGQGTQVTVSSGGGSQVQLQESGGGSVQAGGSLRLSCTVSGYTYSSNCMGWFRQAPGKEREGVATIYTGGGNTYYADSVKGRFTISQDNAKNTVYLQMNNLKPEDTAMYYCAAEPLSRVYGGSCPTPTFDYWGQGTQVTVSSASHHHHHH

biological target: T1, human IL-10 receptor (hIL-10R alpha and beta chains) on HEK-Blue IL-10 reporter cells (human, UniProt Q13651 22-578; Q08334 20-325); assay: cell-based or functional assay
T1 sequence 1: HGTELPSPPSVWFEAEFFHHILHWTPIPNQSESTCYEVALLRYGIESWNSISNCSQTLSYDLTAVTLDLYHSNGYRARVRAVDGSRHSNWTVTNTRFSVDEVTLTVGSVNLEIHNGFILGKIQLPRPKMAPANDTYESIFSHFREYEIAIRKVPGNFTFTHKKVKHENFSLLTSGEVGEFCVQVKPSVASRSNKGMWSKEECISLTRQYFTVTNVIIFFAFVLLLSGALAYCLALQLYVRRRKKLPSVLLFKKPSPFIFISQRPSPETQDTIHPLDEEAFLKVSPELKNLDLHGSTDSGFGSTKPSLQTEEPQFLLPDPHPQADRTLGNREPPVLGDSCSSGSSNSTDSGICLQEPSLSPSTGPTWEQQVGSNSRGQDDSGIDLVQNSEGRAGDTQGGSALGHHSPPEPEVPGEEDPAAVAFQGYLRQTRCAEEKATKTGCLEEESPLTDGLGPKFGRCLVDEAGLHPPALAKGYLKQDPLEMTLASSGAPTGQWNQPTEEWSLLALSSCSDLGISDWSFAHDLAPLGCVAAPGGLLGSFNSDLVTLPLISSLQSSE
T1 sequence 2: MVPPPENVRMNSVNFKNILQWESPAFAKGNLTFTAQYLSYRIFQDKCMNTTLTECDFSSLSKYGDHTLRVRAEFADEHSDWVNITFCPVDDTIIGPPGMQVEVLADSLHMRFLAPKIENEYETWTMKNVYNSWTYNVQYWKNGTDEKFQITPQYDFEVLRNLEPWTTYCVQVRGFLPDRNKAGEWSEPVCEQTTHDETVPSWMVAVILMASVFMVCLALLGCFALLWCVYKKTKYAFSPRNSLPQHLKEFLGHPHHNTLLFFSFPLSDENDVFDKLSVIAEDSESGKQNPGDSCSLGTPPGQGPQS

Row | Binder | Abs 630 (25 nM) [Abs 630] | Abs 630 (100 nM) [Abs 630]
1 | B1 | 1.77 | 1.02
2 | B2 | 0.49 | 0.42
3 | B3 | 0.46 | 0.36
4 | B4 | 0.45 | 0.36
5 | B5 | 0.46 | 0.38
6 | B6 | 0.46 | 0.51
7 | B7 | 0.54 | 0.45
8 | B8 | 0.43 | 0.35
9 | B9 | 0.45 | 0.35
10 | B10 | 0.49 | 0.4
11 | B11 | 0.6 | 0.48
12 | B12 | 0.5 | 0.44
13 | B13 | 0.46 | 0.37
14 | B14 | 0.52 | 0.44
15 | B15 | 0.51 | 0.41
16 | B16 | 0.5 | 0.43
